The record followed here is publication PMC6702080 (2019).

For this assay, the target named is T1, BolA2 (Homo sapiens, UniProt Q9H3K6).
T1 chain: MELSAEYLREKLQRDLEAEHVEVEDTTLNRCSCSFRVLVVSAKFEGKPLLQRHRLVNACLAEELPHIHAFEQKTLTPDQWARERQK
The experiment in a line: pull-down.

B1: PCBP1 KH3 (protein)
chain: ASTQTTHELTIPNNLIGCIIGRQGANINEIRQMSGAQIKIANPVEGSSGRQVTITGSAASISLAQYLINAR
modifications: Fe(II)+GSH
Molecule B1 yielded a Kd of 900 nM.

As a reminder, the Kd is the constant that tells how readily two partners part at equilibrium. Lower therefore signals tighter binding.
